Measured values: patent publication US20240240209A1, “SYNTHESIS OF ENANTIOPURE CIS-A-IRONE FROM A RENEWABLE CARBON SOURCE” (Agency for Science, Technology and Research, priority 2021, published 2024)
Residue numbers refer to the chain shown, from its start. Numbers in names are those of the source. Where “and” joins values, the source holds several entries; their conditions need not be identical. Identical values can stand only once. Entries after “also recorded” stand apart in the source; their conditions may differ.

B1: pMT7: pMT1 with Y200F S182E L273V L180A A202L Y65F (protein)
chain: MPQEARTPQQQVTADEVGDWYDKFGEVYHLTLGESVHCGLWFPPDAPVPQDMELVTMSSQAQDRFTDYLIETLDPKAGQHLLDIGCGTGRTALKAARQRGIAVTGVAVSKEQIAAANRLAAGHGLTERLTFEVADAMRLPYEDESFDCAWAIESLCHMDRAKALGEAWRVLKPGGDLLVAEEVVTEELTEPETALFETLFALNVPPRLGEFFDIVSGAGFHTLSLKDLSANLAMTMNVFALGVYSRRAEFTERFGAEFVDGLLAGLGSAQETVIRKTRFFMATLRKPAV
modifications: Modified from pMT1
notes: pMT1 with Y200F S182E L273V L180A A202L Y65F
B2: pMT10: pMT1 with Y200F S182E L273V L180A A202L Y65F C156A T91P (protein)
chain: B1 chain with T91P, C156A
modifications: Modified from pMT1
notes: pMT1 with Y200F S182E L273V L180A A202L Y65F C156A T91P

Key:
[1] = In vivo cis-α-irone production from glucose/glycerol in strain 2O31 cultures; type: cell-based, Escherichia coli; settings: pMT plasmid transformed into strain 2O31; 2 days
Text: The advantage of in vivo biotransformation is that microbial cells can regenerate expensive co-factors rendering the scale-up bioprocess more cost-effective. […] Thus, pMT was incorporated into our psi-ionone producing microbe^7,8, to synthesize cis-α-irone from cheap renewable carbon sources (glucose/glycerol) (FIG. 4 and FIG. 19). To achieve high productivity, the psi-ionone production was first optimized by multidimensional heuristic process (MHP)^15, and strain 2O31 was identified to be the highest producer for psi-ionone (FIG. 19b). 2O31 was used as the base strain to probe cis-α-irone production in vivo (Table 5). Moreover, to improve the plasmid stability, auxotrophic strain was used with chemically defined media^1. The plasmid carrying pMT1, pMT7 or pMT10 was transformed into the strain 2O31, and produced less than 0.01, about 2 and about 3 mg/L cis-α-irone respectively in 2 days (FIG. 19d). To further optimize irone production with pMT10, three different culture conditions were tested: no methionine or dodecane added (control); 10 mM methionine added; 10 mM methionine and 20% dodecane added. In the control reaction, approximately 4.8 mg/L or 0.85 mg/L/OD cis-α-irone was produced after 3-day incubation (2O31-pMT10, FIGS. 4c and 4e). […] Lastly, when both methionine and dodecane were added, psi-ionone was accumulated in the organic layer and only ˜0.3 mg/L or ˜0.05 mg/L/OD cis-α-irone was produced (2O31-pMT10, FIGS. 4c, d and e). […] The limited methylation efficiency might be due to insufficient cofactor or SAH inhibition. […] In fact, the total amount of psi-ionone and cis-α-irone decreased (FIG. 4c, and d). As SAM biosynthesis is regulated by metJ in E. coli^16,17, the aforementioned six reactions were subsequently examined under metJ deleted genetic background (2O31, ΔmetJ). An increase in cis-α-irone titer to ˜5.7 mg/L was produced by 2O31 ΔmetJ-pMT10 strain with 10 mM methionine supplementation (FIG. 4c). An increase in specific cis-α-irone titer to ˜1.2 mg/L/OD was produced by 2O31 ΔmetJ-pMT10r strain without methionine supplementation (FIG. 4d). […]

[2] = Stability of pMT7 (native PAGE, pre-incubation at 28° C.); settings: incubating or reacting at 28° C. overnight
Method: (28 C) or 4° C. (4 C). […] All the data shown is an average of replicate reaction.
(§1) The steady-state kinetic parameters of pMT7 were determined (Table 3). […] While determining the steady-state kinetics of pMT7, it was noticed that the reaction with purified pMT7 stopped at 6 h before significant conversion had taken place (FIG. 15a). Moreover, while using cell extracts containing pMT7, the reaction reached a plateau after 1-day incubation (FIG. 15b). […] Since pMT7 is an hexamer in solution^10, its oligomeric state before and after the reaction was examined. […] (28 C) overnight as compared to 4° C. […] It was further tested if the enzyme was subject to feedback inhibition, as the cofactor product SAH is a potent inhibitor of methyltransferases^12.

[3] = In vitro biotransformation of psi-ionone to cis-α-irone by cell lysate containing overexpressed pMT10; type: biochemical; settings: 28° C., 3 days
Method: All the purified enzyme reactions were done in triplicates.
With the positive effect of mtaD, in vitro biotransformation by using cell lysate containing overexpressed pMT10 and mtaD was explored. To challenge the enzyme, 10 mg/L (0.05 mM), 100 mg/L (0.5 mM) or 1000 mg/L (5 mM) of psi-ionone was supplemented into the reaction, and 6.4 mg/L (˜0.03 mM), 54 mg/L (˜0.26 mM) and 182 mg/L (˜0.88 mM) of cis-α-irone were produced, respectively after incubating the reaction at 28° C. for 3 days (FIG. 3d).

[4] = Steady-state kinetics of purified pMT enzyme, substrate psi-ionone; type: biochemical; settings: pMT10 vs pMT7 (Table 3)
Method: as §1
To determine the purified enzyme kinetics and in vivo production, the reaction mixture was extracted with 0.5× or 1× volume of ethyl acetate and the organic phase was diluted appropriately before subjected to GCMS analysis. The samples were analyzed on an Agilent Intuvo 9000 GC system equipped with Agilent DB-WAX Ultra Inert Intuvo GC column (30 m×250 μm×0.25 μm) and Agilent 5977B mass spectrometry with high efficiency source. 1 μl organic phase was injected at the split ratio 10:1 at 250° C. […] The concentration of psi-ionone and irone were calculated by interpolating with a standard curve prepared by synthetic standards.

| Molecule | cis-α-irone produced [1] | stability of enzyme [2] | cis-α-irone produced ([3]; 10 mg/L (0.05 mM) psi-ionone) | cis-α-irone produced ([3]; 100 mg/L (0.5 mM) psi-ionone) | improvement of catalytic efficiency [4] [fold] |
| --- | --- | --- | --- | --- | --- |
| B1 | about 2 mg/L | remained intact as hexamer; also recorded: stable under the reaction temperature |  |  |  |
| B2 | about 3 mg/L |  | 6.4 mg/L and ~0.03 mM | 54 mg/L and ~0.26 mM | 10 |
